The values below come from patent US20220332804A1 (CSL INNOVATION, published 2022).

Assay in all cases: SPR, KD relative to WT C2;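 also: biacore SPR at 37 °C, anti-C2 mAbs captured on anti-human IgG chips with alanine or serine point mutants of C2 as analyte, KD from 1:1 fit compared with wild-type C2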
For orientation: SPR reads the build-up and loss of mass on a sensor chip optically.

The target in one assay is T1, human C2 N325A (human, UniProt P06681 21-752).
T1 sequence: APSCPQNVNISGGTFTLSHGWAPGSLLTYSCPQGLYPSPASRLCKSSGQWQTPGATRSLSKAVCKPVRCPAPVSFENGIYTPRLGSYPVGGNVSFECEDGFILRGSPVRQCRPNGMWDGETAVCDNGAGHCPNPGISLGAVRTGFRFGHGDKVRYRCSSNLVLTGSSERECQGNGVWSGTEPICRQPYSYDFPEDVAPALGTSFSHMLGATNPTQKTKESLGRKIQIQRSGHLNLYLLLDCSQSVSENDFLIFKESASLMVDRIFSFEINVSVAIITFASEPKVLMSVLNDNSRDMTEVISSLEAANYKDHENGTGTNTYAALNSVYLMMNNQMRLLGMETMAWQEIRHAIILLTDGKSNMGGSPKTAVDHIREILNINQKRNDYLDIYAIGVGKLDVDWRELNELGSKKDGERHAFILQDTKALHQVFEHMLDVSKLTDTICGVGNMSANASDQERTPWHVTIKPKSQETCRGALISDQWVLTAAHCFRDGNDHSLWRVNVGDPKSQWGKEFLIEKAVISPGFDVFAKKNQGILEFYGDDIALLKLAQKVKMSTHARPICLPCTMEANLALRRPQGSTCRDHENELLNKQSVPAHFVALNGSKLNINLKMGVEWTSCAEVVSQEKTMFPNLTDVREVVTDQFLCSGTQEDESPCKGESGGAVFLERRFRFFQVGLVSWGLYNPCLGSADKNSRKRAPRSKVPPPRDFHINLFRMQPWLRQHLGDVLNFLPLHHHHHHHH

The target in another assay is T2, human C2 K415A (human, UniProt P06681 21-752).
T2 sequence: T1 sequence with A305N, K395A

Another assay has as its target T3, human C2 D417A (human, UniProt P06681 21-752).
T3 sequence: T1 sequence with A305N, D397A

The target in another assay is T4, human C2 W420A (human, UniProt P06681 21-752).
T4 sequence: T1 sequence with A305N, W400A

Residue numbers refer to the chain shown, from its start.

Method for human C2 D417A: (§1) Surface plasmon resonance (SPR, Biacore) was used for all binding affinity analyses. In brief, goat anti-human IgG was directly immobilised onto the carboxymethyl dextran surface of CM5 sensorchips to approximately 12,000 RU using standard NHS/EDC chemistry at pH 5. The immobilised antibody surface was pre-conditioned with ten injections of polyclonal human IgG (Privigen 60 s) prepared at 1 μg/mL. Ligands (anti-C2 mAbs) were captured at the beginning of each cycle as described below. An adjacent spot or flow cell in which only Polyclonal IgG was capture was used as a reference surface. The goat anti-human IgG Fc antibody surface was regenerate in 100 mM H3PO4, injected for 45 seconds at the end of each cycle. Experiments were performed at 37° C. and the flow rate of each experiment was kept constant at 30 μL/min.
(§2) Sensogram data was double-referenced against a reference anti-IgG surface (i.e. minus anti-C2 mAb) and blank buffer injections obtained within each experiment. The binding data was fit to 1:1 (kinetic or steady-state) model using local Rmax and null refraction index (RI=0) when appropriate. Buffers and solutions were filtered (0.22 μm) prior to use.
Method for human C2 K415A: as §1, §2
Method for human C2 N325A: as §1, §2
Method for human C2 W420A: as §1, §2

B1: RF16-242 (antibody, human IgG4 S228P, lambda, V domains shown)
VH: EVQLLQSGAEVKKPGESLKISCKGSGYSFTSYWIGWVRQMPGKGLEWMGIIYPGDSDTRYSPSFQGQVTISADKSISTAYLQWSSLKASDTAMYYCARRGHYGDYFDYWGQGTLVTVSS
VL: SYELTQPPSVSVSPGQTARITCSGDALPKKYAYWYHQKSGQAPVLVIYEDRRRPSEIPERFSGSSSGTMATLTITGAQVEDEGVYFCYSRDRAGNQRVFGGGTQLTVLG
notes: pH-dependent anti-C2 antibody from a phage display library
On to B1, for which the Fold diff in the assay with human C2 N325A was 6 fold; in the assay with human C2 K415A, 1 fold; with human C2 D417A it was 3 fold; with human C2 W420A, 2 fold.
